Laboratory results published in patent publication US20020177180A1, “pH-indicator based assay for selective enzymes” (ThermoGen, Inc., priority 1998, published 2002).

Columns and labels:
Format in all cases: biochemical
[1] = Quick E of chromogenic ester with resorufin tetradecanoate reference; details: substrate 1
Experimental: To reintroduce competition, resorufin tetradecanoate was added as a reference compound, FIG. 7. The initial rates of hydrolysis of (S)-1 were monitored at 404 nm and the reference compound at 572 nm in the same solution. After taking into account the initial concentrations of both substrates, the ratio of these rates yielded the selectivity of the hydrolase for (S)-1 over the reference compound, Eq 8.
A second experiment using (R)-1 and the reference compound yielded the selectivity of (R)-1 over the reference compound. The ratio of these two selectivities yields the enantiomeric ratio, Eq. 9.
Substrate solutions were the same as for separately measured initial rate measurements, but a solution of resorufin tetradecanaote 6 (0.5 mL of a 1.59 mM solution in acetonitrile) was added slowly to the vortexing solutions of pure enantiomers. It was necessary to use a 2-fold increase in the concentration of Triton X-100 to solubilize resorufin tetradecanoate. The emulsions remained clear for at least 2 hours. To measure the initial rates of hydrolysis, lipase solutions from Table 4 (100 μL) was added to the substrate emulsion (900 μL) in a cuvette at 25° C. and the linear increase in absorbances at 404 nm and 574 nm were monitored for 15 s. Rates are calculated in μmol/min/mg protein after taking into account the amount of protein in each cuvette. […] No spontaneous chemical hydrolysis was detected at 404 nm or 574 nm.

[2] = Separately measured initial rates of chromogenic esters (404 nm), estimated E; details: substrate 1
Experimental: The initial rates of hydrolysis of 4-nitrophenyl esters of pure enantiomers were determined to quickly estimate the enantioselectivity of several lipases towards three common chiral carboxylic acids: 2-phenylpropanoic acid, p-nitro phenyl ester (or, 4-nitrophenyl 2-phenylpropanoate), 1; 2-(4-isobutylphenyl)propanoic acid (commercially available as Ibuprofen), 2; and phenylalanine, 3, FIG. 5. The rates of hydrolysis of 4-nitrophenyl esters were conveniently determined spectrophotometrically by monitoring the rate of release of 4-nitrophenoxide anion at 404 nm, FIG. 6. The ratio of separately measured initial rates of hydrolysis estimated the enantioselectivity. The quick E of phenylalanine, 3, was not measured because of its instability in aqueous solution.
Separately measured initial rates of chromogenic esters. 4-nitrophenyl esters of 2- phenylpropanoic acid, 1, and 2-(4-isobutylphenyl)propanoic acid, 2, were emulsified in aqueous solutions according to Vorderwuibecke. A solution of (R) or (S)-4-nitrophenyl-esster (500 μL of a 7.8 mM solution in acteonitrile) was added dropwise to Tris buffer (9000 μL, 50 mM, pH 7.5) containing 0.45 w/v % Triton X-100 (Pierce Surfact-Amps) and vortexed until clear. This emulsion remained clear for at least 3 hours. To measure the initial rates of hydrolysis, lipase solutions from Table 3 (100 μL) were added to the substrate emulsion (900 μL) in a cuvette at 25° C. and the linear increase in absorbance at 404 nm was monitored for 15 s. The final concentrations in the cuvettes were 0.369 mM substrate, 0.39% Triton X-100, 45 mM Tris buffer, 4.76% acetonitrile. No spontaneous chemical hydrolysis was detected. Solutions of 4-nitrophenyl esters of phenylalanine, 3, in acetonitrile (5 IL of a 50 mM solution in acetonitrile) were added to HEPES buffer (1000 μL, 10 mM , pH 7.5). To measure the rates of hydrolysis, 5 μL of ANL solution was added and the change in absorbance monitored as above.

[3] = Endpoint method: small-scale enzyme-catalyzed hydrolysis, ee by HPLC, true E; details: substrate 1
[4] = pH-indicator (4-nitrophenol/BES) microplate screening of commercial hydrolases, initial rates of hydrolysis; details: for Activity (R): (R)-solketal butyrate 1.0 mM; for Activity (R) / Activity (S) / Activity (±): pH 7.2, 7.1% acetonitrile, 25° C.; for Activity (S): (S)-solketal butyrate 1.0 mM; for Activity (±): (±)-solketal butyrate 1.0 mM, specific activity; for Estimated E: without Triton X-100
Experimental: The hydrolases were dissolved in BES buffer (5.0 mM, pH 7.2) at the concentrations listed in Table 1 (0.5-40 mg solid/mL solution). […] CaCl2 (2 mM) was added to the protease solutions since some proteases require calcium ions to maintain their structure. For hydrolase samples with low protein content, saturated solutions (up to 40 mg solid/ml) were utilized for hydrolase samples and with high protein content were utlized, lower concentrations (typically, 1 mg solid/ml) were utilized. Each solution was centrifuged to remove insoluble material (5 min, 2,000 rpm) and titrated to a final pH of 7.2. The protein concentrations were determined using a dye-binding assay from Bio-Rad (Mississauga, ON) with bovine serum albumin (BSA) as the standard. Solutions were stored in a 96-well assay block ‘mother plate’ equipped with aluminum sealing tape (2 mL maximum volume in each well, Corning Costar, Acton, Mass.) at −20° C.
Hydrolase solutions (5 μL/well) were transferred from the mother plate to a 96-well microtiter plate using an 8-channel pipette. Assay solution (100 μL/well) was quickly added to each well using a 1,200 μL 8-channel pipette. The final concentrations in each well were 1.0 mM substrate, 4.65 mM BES, 0.434 mM 4-nitrophenol, 7.1% acetonitrile. The plate was quickly placed in the microplate reader, shaken for 10 s to ensure complete mixing and the decrease in absorbance at 404 nm was monitored at 25° C. as often as permitted by the microplate software, typically every 11 seconds. […] Data were collected for one hour to ensure slow reactions and reactions with a lag time were detected. Each hydrolysis was carried out in quadruplicate and was averaged. […] For this reason. the first 10 s of data was typically deleted from the calculation of the initial rate. Activities were calculated from slopes in the linear portion of the curve usually over the first two hundred seconds. […] To calculate specific activity (μmol/min/mg protein), the total amount of protein in each well was taken into account.
The assay was used to screen for enantioselective hydrolases in 96-well microplates. Using pure enantiomers, the initial rates of hydrolysis of each enantiomer of solketal butyrate was measured separately. […] Note that the ratio of separately measured initial rates of hydrolysis of the enantiomers is not the true enantioselectivity, so this screening provides only an estimated enantioselectivity. The true enantioselectivity is the ratio of the specificity constants (kcat/KM) for each enantiomer. By measuring initial rates of the enantiomers separately, competitive binding between the two enantiomers was eliminated. At saturating substrate conditions, the relative initial rates equal the relative kcat values; at partially saturating conditions, the initial rates also depend on the KM values. Thus, the ratio of separately measured initial rates ignores some or all of the effect of KM on enantioselectivity. In spite of this inaccuracy, the relative initial rate provides an estimated enantioselectivity.

[5] = pH-indicator screening under interfacial activation conditions (Triton X-100); details: 2.8 mM Triton X-100 in the wells
Experimental: The procedure was the same as above except that the BES buffer (5 mM, pH 7.2) contained Triton-X 100 (8.45 mM). Final concentration of Triton X-100 in the wells was 2.8 mM.
The reaction conditions in the assay were altered in an attempt to increase the estimated enantioselectivity toward solketal butyrate. For example, the activity of hydrolases, especially lipases, often increases in the presence of an interface. It was reasoned that this interfacial activation may also change the enantioselectivity. The hydrolase library was screened with Triton X-100 (a non-ionic detergent) added to create micelles. The reaction rates increased for eight hydrolases (three lipases and five esterases), decreased for thirty-two hydrolases, and stayed constant for twelve hydrolases. Unfortunately, the estimated enantioselectivities remained unchanged or decreased slightly for the best hydrolases: AOP (decrease from 4.9 to 4.2), ROL (decrease from 11.3 to 9.6), HLE (decrease from 12.2 to 7.6), BSP (decrease from 7.3 to 5.4). […] For example, subtilisin Carlsberg increased from 2.6 to 2.8, esterase from Bacillus stearothermophilus increased from 1.7 to 2.4 and Aspergillus oryzae lipase decreased from 4.95 to 1.8.

[6] = 0.37 mM substrate, 0.38% Triton X-100, 45.2 mM Tris Buffer, 4.76% acetonitrile
[7] = ratio of separately measured initial rates of the enantiomers

Molecule	(R)-enantiomer + ref, rate 404 nm ([1]; 0.351 mM (R)-ester + 0.071 mM resorufin tetradecanoate, Tris pH 8, 25°) [μmol/min/mg protein]	(S)-enantiomer + ref, rate 404 nm ([1]; 0.351 mM (S)-ester + 0.071 mM resorufin tetradecanoate, Tris pH 8, 25°) [μmol/min/mg protein]	Quick E ([1]; error = standard deviation for 3 measurements)	(R)-enantiomer + ref, rate 574 nm ([1]; reference hydrolysis in presence of (R)-ester) [μmol/min/mg protein]	(S)-enantiomer + ref, rate 574 nm ([1]; reference hydrolysis in presence of (S)-ester) [μmol/min/mg protein]	Initial Rate (R) [2, 6] [μmol/min/mg protein]	Initial Rate (S) [2, 6] [μmol/min/mg protein]	Estimated E ([2]; ratio of separately measured initial rates)	C [3]	eep [3]	Endpoint E ([3]; Tris buffer pH 8.0, room temperature)	Activity (R) [4] [μmol/min/mg protein]	Activity (S) [4] [μmol/min/mg protein]	Activity (±) [4] [μmol/min/mg protein]	Estimated E [4, 7]	Estimated E [4]	Estimated E ([4]; ratio of separately measured initial rates of the enantiomers, listed as subtilisin Carlsberg)	estimated enantioselectivity with Triton X-100 [5]
Porcine pancreas: commercial lipase from porcine pancreas (protein, UniProt P00591 1-450, looked up) Pancreatic triacylglycerol …: SEVCFPRLGCFSDDAPWAGIVQRPLKILPWSPKDVDTRFLLYTNQNQNNYQELVADPSTITNSNFRMDRKTRFIIHGFIDKGEEDWLSNICKNLFKVESVNCICVDWKGGSRTGYTQASQNIRIVGAEVAYFVEVLKSSLGYSPSNVHVIGHSLGSHAAGEAGRRTNGTIERITGLDPAEPCFQGTPELVRLDPSDAKFVDVIHTDAAPIIPNLGFGMSQTVGHLDFFPNGGKQMPGCQKNILSQIVDIDGIWEGTRDFVACNHLRSYKYYADSILNPDGFAGFPCDSYNVFTANKCFPCPSEGCPQMGHYADRFPGKTNGVSQVFYLNTGDASNFARWRYKVSVTLSGKKVTGHILVSLFGNEGNSRQYEIYKGTLQPDNTHSDEFDSDVEVGDLQKVKFIWYNNNVINPTLPRVGASKITVERNDGKVYDFCSQETVREEVLLTLNPC	0.000659	0.00105	1.4 ± 0.2	0.00437	0.000495	0.00403	0.0059	1.4 ± 0.1	4.0	2.0	1.1 ± 0.1	–	–	–	–	–	–	–
Proteinase K: commercial protease (protein, UniProt P06873 106-384, looked up) Proteinase K: AAQTNAPWGLARISSTSPGTSTYYYDESAGQGSCVYVIDTGIEASHPEFEGRAQMVKTYYYSSRDGNGHGTHCAGTVGSRTYGVAKKTQLFGVKVLDDNGSGQYSTIIAGMDFVASDKNNRNCPKGVVASLSLGGGYSSSVNSAAARLQSSGVMVAVAAGNNNADARNYSPASEPSVCTVGASDRYDRRSSFSNYGSVLDIFGPGTSILSTWIGGSTRSISGTSMATPHVAGLAAYLMTLGKTTAASACRYIADTANKGDLSNIPFGTVNLLAYNNYQA	–	–	–	–	–	–	–	–	–	–	–	3.08	2.29	2.14	1.24	–	–	–
Themsolysin, Type X: commercial protease (protein, UniProt P00800 233-548, looked up) Thermolysin: ITGTSTVGVGRGVLGDQKNINTTYSTYYYLQDNTRGNGIFTYDAKYRTTLPGSLWADADNQFFASYDAPAVDAHYYAGVTYDYYKNVHNRLSYDGNNAAIRSSVHYSQGYNNAFWNGSQMVYGDGDGQTFIPLSGGIDVVAHELTHAVTDYTAGLIYQNESGAINEAISDIFGTLVEFYANKNPDWEIGEDVYTPGISGDSLRSMSDPAKYGDPDHYSKRYTGTQDNGGVHINSGIINKAAYLISQGGTHYGVSVVGIGRDKLGKIFYRALTQYLTPTSNFSQLRAAAVQSATDLYGSTSQEVASVKQAFDAVGVK	–	–	–	–	–	–	–	–	–	–	–	0.255	0.738	0.095	2.89	5	–	–
Subtilisin Carlsberg: commercial protease (protein, UniProt P00780 106-379, looked up) Subtilisin Carlsberg: AQTVPYGIPLIKADKVQAQGFKGANVKVAVLDTGIQASHPDLNVVGGASFVAGEAYNTDGNGHGTHVAGTVAALDNTTGVLGVAPSVSLYAVKVLNSSGSGSYSGIVSGIEWATTNGMDVINMSLGGASGSTAMKQAVDNAYAKGVVVVAAAGNSGSSGNTNTIGYPAKYDSVIAVGAVDSNSNRASFSSVGAELEVMAPGAGVYSTYPTNTYATLNGTSMASPHVAGAAALILSKHPNLSASQVRNRLSSTATYLGSSFYYGKGLINVEAAAQ	–	–	–	–	–	–	–	–	–	–	–	0.213	0.082	0.083	2.60	–	2.6	2.8
